Experimental findings from patent US20250277196A1, “EPSPS MUTANTS AND METHOD OF ITS USES” (CROPEDIT BIOTECHNOLOGY INC., priority 2021, published 2025) are described below.

Holding throughout (type): cell-based
For experiment [1], the system named is E. coli lacking EPSPS. In words: Resistance test of soybean EPSPS mutant and comparison with wild type (FIG. 4). The conditions noted are these: 0.5 mM glyphosate. From the text:
According to the wild-type sequence information of soybean (Glycine max) EPSPS (SEQ ID NO:36), the gene was synthesized and inserted into the vector pKED2 to obtain the vector GmWt. The V403 site of GmWt was mutated to A by PCR, and the vector GmVA expressing the soybean EPSPS mutant protein containing the V403A mutation was obtained. The specific experimental steps were as following:
(§1) a) PCR system: According to the primer and template mixed PCR system corresponding to the target vector in the above table, the forward primer was 1.25 μl, the reverse primer was 1.25 μl, the template plasmid was 2 μl, the Q5 PCR master mix was 12.5 μl, and ddH2O was […].
(§2) b) PCR reaction conditions were as follows: the annealing temperature was set according to the annealing temperature corresponding to the target carrier in the above table.
(§3) c) Took out 5 μl of the obtained PCR product and added it to the loading buffer for agarose gel electrophoresis. A band with a size of about 4.5 kb was considered successful.
(§4) d) Used NEB's KLD enzyme mixture to remove the template and connected the PCR product. The connection system was 5 μl KLD buffer, 1 μl KLD MIX, 1 μl PCR product, and ddH2O 3 μl. After ligating at room temperature for 5 min, transformed it into E. coli.
(§5) e) The ligation product was transformed into Dh5a competent E. coli lacking EPSPS. […]

Experiment [2] concerns E. coli lacking EPSPS. In words: Resistance test of flax EPSPS V403A mutant and comparison with wild type (FIG. 4). To be noted: presence of 1 mM and 2 mM glyphosate. The method, then:
The flax (Linum usitatissimum) EPSPS mutant sequence(SEQ ID NO: 27) was synthesized and cloned into the pKED2 vector to obtain the vector LuVA. The vector LuWt was created after introducing A403V mutation by PCR.
as §1, §2, §3
(§6) d) Used NEB's KLD enzyme mixture to remove the template and then connected the PCR product. The connection system was 5 μl KLD buffer, 1 μl KLD MIX, 1 μl PCR product, and ddH2O 3 μl. After ligating at room temperature for 5 min, transformed it into E. coli.
e) The ligation product was transformed into Dh5a competent E. coli lacking EPSPS. After resuscitation, the cells were washed twice with M9 medium, and then the washed cells were spread on M9 medium and cultured for 48 h. […]

Experiment [3] has as its system E. coli lacking EPSPS. In words: Resistance identification of flax EPSPS mutants LuGPV, LuTIPT, LuTIPTVA (FIG. 5, FIG. 6). The conditions noted are these: FIG. 6.
Description: The G172 position and P177 position of LuVA were mutated into A and S at the same time by PCR, and a 3-point mutant LuGPV was obtained.
The T173 and P177 positions of LuWT were simultaneously mutated to I and T by PCR, and a […] mutant LuTIPT was obtained.
The T173 and P177 positions of LuVA were simultaneously mutated to I and T by PCR, and a 3-point mutant LuTIPTVA was obtained.
as §1, §2, §3, §4
e) The ligation product was transformed into Dh5a competent E. coli lacking EPSPS. After resuscitation, the cells were washed twice with M9 medium, and then the washed cells were spread on M9 medium and cultured for 48 h. Sequenced the grown single colony (Tsingke Biological Technology Co., Ltd.), and selected the correct mutant to save for future use.
The resistance results were shown in FIG. 5: LuWt(SEQ ID NO:26) represents the EPSPS2 gene of flax, LuGPV (SEQ ID NO:30) represents the flax G172A+P177S+V403A three-point mutant. The resistance results were shown in FIG. 6: LuTIPT (SEQ ID NO:28) was the flax T173I+[…] double-point mutants, LuTIPTVA (SEQ ID NO:29) was flax T173I+P177T+V403A three-point mutants.

In experiment [4] the test system is E. coli lacking EPSPS. In words: Resistance test of wheat EPSPS mutant and comparison with wild type (FIG. 4). The conditions noted are these: 0.2 mM glyphosate.
Description: The gene was synthesized according to the V403A mutant sequence information (SEQ ID NO:32) of the EPSPS gene on chromosome 7 of the wheat A genome and inserted into the vector pKED2 to obtain the wheat (Triticum vulgare) EPSPS mutant expression vector TaVA containing the V403A mutation. The A403 site of TaVA was mutated back to V by PCR, and a TaWt vector expressing the EPSPS wild-type gene on chromosome 7 of wheat A genome was obtained.
as §1, §2, §3, §6, §5

Changes are numbered by the printed parent chain.

B1: GmVA (protein)
DNA: MAAAEKPSTAPEIVLEPIKDISGTITLPGSKSLSNRILLLAALSEGTTVVDNLLYSEDIHYMLGALRTLGLRVEDDQTTKQAIVEGCGGLFPTIKESKDEINLFLGNAGTAMRPLTAAVVAAGGNASYVLDGVPRMRERPIGDLVAGLKQLGADVDCFLGTNCPPVRVNGKGGLPGGKVKLSGSISSQYLTALLMAAPLALGDVEIEIVDKLISVPYVEMTLKLMERFGVSVEHSGNWDKFLVHGGQKYKSPGNAFVEGDASSASYFLAGAAVTGGTITVNGCGTNSLQGDVKFAEVLEKMGAKVTWSENSVTVTGPPQDSSGQKVLQGIDVNMNKMPDAAMTLAVVALFANGQTAIRDVASWRVKETERMIAICTELRKLGATVEEGPDYCVITPPEKLNVTAIDTYDDHRMAMAFSLAACGDVPVTIKDPGCTRKTFPDYFEVLERFTRH
modifications: This sequence is synthesized in lab.
For the molecule B1, the “growth status compared with GmWt” value in the experiment on E. coli lacking EPSPS [1] is recorded as “significantly higher than that of GmWt”.

B2: LuVA (protein)
DNA: MTVPEEIVLQPIKDISGIVTLPGSKSLSNRILLLAALSEGKTVVDNLLNSDDVHYMLGALKTLGLNVEHSSEQKRAIVEGRGGVFPVGKLGKNDIELFLGNAGTAMRPLTAAVTAAGGNSSYILDGVPRMRERPIGDLVVGLKQLGADVSCSSTSCPPVHVNAKGGLPGGKVKLSGSISSQYLTALLMAAPLALGDVEIEIVDKLISVPYVDMTLKLMERFGVAVEHSGSWDRFFVKGGQKYKSPGNAYVEGDASSASYFLAGAAITGGTITVEGCGTSSLQGDVKFAEVLEKMGAKVTWTETSVTVTGPPRDASGKKHLRAVDVNMNKMPDAAMTLAVVALYADGPTAIRDVASWRVKETERMIAVCTELRKLGATVEEGPDYCIITPPEKLSIAEIDTYDDHRMAMAFSLAACADVPVTIRDPGCTKKTFPDYFEVLERYTKH
modifications: This sequence is synthesized in lab.
B2: the “growth status compared with LuWt” value in the experiment on E. coli lacking EPSPS [2] is given as “significantly better than that of LuWt”.

B3: LuTIPTVA (protein)
DNA: B2 DNA with T104I, P108T
modifications: This sequence is synthesized in lab.
Regarding B3, the “resistance compared with LuTIPT” value with E. coli lacking EPSPS [3] is recorded as “higher than that of LuTIPT”.

B4: TaVA (protein)
DNA: MAGAEEVVLQPIREISGAVQLPGSKSLSNRILLLSALSEGTTVVDNLLNSEDVHYMLEALEALGLSVEADKVAKRAVVVGCGGRFPVEKDAKEEVKLFLGNAGTAMRPLTAAVVAAGGNATYVLDGVPRMRERPIGDLVVGLQQLGADVDCFLGTNCPPVRINGKGGLPGGKVKLSGSISSQYLSSLLMAAPLALEDVEIEIIDKLISVPYVEMTLKLMEHFGVTAEHSDSWDRFYIKGGQKYKSPGNAYVEGDASSASYFLAGAAITGGTVTVEGCGTTSLQGDVKFAEVLEMMGAKVTWTDTSVTVTGPPRQPFGRKHLKAVDVNMNKMPDAAMTLAVVALFADGPTAIRDVASWRVKETERMVAIRTELTKLGATVEEGPDYCIITPPEKLNITAIDTYDDHRMAMAFSLAACAEVPVTIRDPGCTRKTFPNYFDVLSTFVKN
modifications: This sequence is synthesized in lab.
For B4, the “growth state compared with TaWt” value in the experiment on E. coli lacking EPSPS [4] is on record as “significantly higher than that of TaWt”.
